Laboratory results reported in the DeepSol protein solubility set.

Test: soluble on expression in E. coli; label from the status in PepcDB or PDB records
For “MLKIQAYFNETADLPCQFANSQNQSLSELVVFWQDQENLVLNEVYLGKEKFDSVHSKYMGRTSFDSDSWTLRLHNLQIKDKGLYQCIIHHKKPTGMIRIHQMNSELSVLA”, the “soluble on expression in E. coli” value was “soluble”.
With “MQIKILATSDMHGYIMPTSYSEKKMDLPFGTAKAATMLKKLRASAKGPVFQIENGDFIQGSPLSYYVRKAETHSVAAITKIINQMNYDVSILGNHEFNYGLDYLKETIASYQQPVLAANILGKDGQPYFGQPYVIIEKQGVKVAILGVTTQYIPHWEQPATVKDLTFKSVVETAAEYVPKLREEADLVVVAYHGGFEKDLETGEPTELLTGENEGYDLLEKVPGIDALVTGHQHREIATKLNGIPVIQPGFRGAFVGEITLEIEPMAKGYHVIGSDAAIHPVGNEQPDTEVLALTTALHDEVEEWLDQPVGNVEGDMTIQNPNAVRLKEHPYIEFINNVQMASSGTDISGTALFNNEGKGFNNQITMRDIITNYIYPNTLAVLRVTGQDLREALEQSATYFVLEKGQPIFNPKYVDPKPQYYNYDMYEGIEYTLDLRQPFGERVTKLNYHGKAVQAEDVLEIVTNQYRAVGGGNYQMFQPEKIIREIQIDMTELIAEYLKKHPIIQASTNDNFKVIW” the “soluble on expression in E. coli” value was “not soluble”.
For “MSLEFLIYSLPEEVLREEMLGNFSVALKLIDDFLKKDLPLLQRERLIYEKERIERLLEDYPFTEKEAMEKMREMFEGFSEGEFQYLMNEGVLDYIVVEGEKRFERRFFHNLAFVRSEYRERLRKDERSEKARRILHERLERLIKGEDPKRYRIRARITLKLKETSSKHRVWLPFPKESLQIESVKLLRTSHKSYYISPNDVPQRTIYFEGEDSTFFVEFEYIVREWVNHVDPERVSEKVAGFEEFLKEEPPHIVFTPKLRWLTQTVVGSEVNPYLKAKRIYDWITLNVRYSYVKPYALYENITDFVVNNLKGDCGFQALLFITMCRIAGVPARWQSGWYINPIFGSPHDWALFYVEPYGWLPADLSFGGARRDNESFRSFYFGNLDGFRMVANDGFMKDFDPKTRFVRSDPTDNQVGEAESEEKRLPFESTIEVISFEEVEGGSHHHHHH”, the “soluble on expression in E. coli” value was “soluble”.
For “MIGQEFRQLLIDKWGYSYDVQLRRTQGKIFLQVMWKYLEQASFPLSESQYQEHLDSITNYLNALGGTIQVQTFITQTKERPRLGKAVSIPLDLGDRSSEWIL”, the “soluble on expression in E. coli” value was “not soluble”.
With “MGSDKIHHHHHHMQIRADFDSGNIQVIDASDPRRIRLAIRPDLASQHFQWFHFKVEGMAPATEHCFTLVNAGQSAYSHAWSGYQAVASYDGERWFRVPSQYDADGLHFQLEPEESEVRFAYFEPYSRERHARLVERALGIEGVERLAVGTSVQGRDIELLRVRRHPDSHLKLWVIAQQHPGEHMAEWFMEGLIERLQRPDDTEMQRLLEKADLYLVPNMNPDGAFHGNLRTNAAGQDLNRAWLEPSAERSPEVWFVQQEMKRHGVDLFLDIHGDEEIPHVFAAGCEGNPGYTPRLERLEQRFREELMARGEFQIRHGYPRSAPGQANLALACNFVGQTYDCLAFTIEMPFKDHDDNPEPGTGWSGARSKRLGQDVLSTLAVLVDELR” the “soluble on expression in E. coli” value was “not soluble”.
In the case of “MGHHHHHHSHMNDSDSTPPKKKMRKTENGMYACDLCDKIFQKSSSLLRHKYEHTGKRPHECGICKKAFKHKHHLIEHMRLHSGEKPYQCDKCGKRFSHSGSYSQHMNHRYSYCKREAEERDSTEQEEAGPEILSNEHVGARASP”, the “soluble on expression in E. coli” value was “soluble”.
In the case of “MMNSTNKLSVIIPLYNAGDDFRTCMESLITQTWTALEIIIINDGSTDNSVEIAKYYAENYPHVRLLHQANAGASVARNRGIEVATGKYVAFVDADDEVYPTMYETLMTMALEDDLDVAQCNADWCFRETGETWQSIPTDRLRSTGVLTGPDWLRMGLSSRRWTHVVWMGVYRRDVIVKNNIKFIAGLHHQDIVWTTEFMFNALRARYTEQSLYKYYLHNTSVSRLHRQGNKNLNYQRHYIKITRLLEKLNRNYADKIMIYPEFHQQITYEALRVCHAVRKEPDILTRQRMIAEIFTSGMYKRLITNVRSVKVGYQALLWSFRLWQWRDKTRSHHRITRSAFNLRLEHHHHHH”, the “soluble on expression in E. coli” value was “not soluble”.
For “MGSDKIHHHHHHMDEVESNFLTVGTLNRYLSAKFVHDPYLKQVSLTGEIFGYKISSGSAYFELRDEDESSIRAYVSPTILRGFPFDFKSGDKVNLVADVRLYGKRAYASLFIFSMQPAGLGELYLKLAELKNKLTKEGIFNRPTKELNYFPKKIAVITSKTGAVIHDISSTIGHRNPNLKIELFESSVQGDSAVKELVSAVKKADQSDADAIIIARGGGSTLDLWPFNDEQLVRLLSSLSKPVISSIGHETDVTLTDLAADYRVETPTAAANKVTPAILDYRNNLDQLTALMSVDIKQLLQKNLNRFEYLANSPALKSFDQVFFNHEQKLQNLNLRLANSFAGEFQKNIQQFANLTAKLDALSPLKVLDRGFSLTFKGDRLIKNAQQLKEKDHIKILFAKGSALAEIKEISDDRRI”, the “soluble on expression in E. coli” value was “not soluble”.
With “MLSETELRALKKLSTTTSRVVGDSTLALPSNVKLSKGEVEKIAVTKKEMFDELAQCNLPTIELITREHTFNGDVIRFAAWLFLMNGQKLMIANNVAVRMGMQYATNLAGNNVKITYVTSNNVVKLGHIAAGVLANPYSNKGSGLFITYEHNLISNQIETGKVCVLFITSLSTTASSTNSFAYSACSVPIEDWDFNMIKLTAETSCASLTAMTNLVNSLVPGERTRPVGLYVDIPGVTVTTSASSGSLPLTTIPAVTPLIFSAYTKQVEEVGVINTLYALSYLP” the “soluble on expression in E. coli” value was “soluble”.
In the case of “GPGSTGASLGMMWKDKLNAMTKEEFTRYKRAGVMETDRKEARDYLKRGDGKTGLSVSRGTAKLAWMEERGYVELTGRVVDLGCGRGGWSYYAASRPHVMDVRAYTLGVGGHEVPRITESYGWNIVKFKSRVDIHTLPVERTDVIMCDVGESSPKWSVESERTIKILELLEKWKVKNPSADFVVKVLCPYSVEVMERLSVMQRKWGGGLVRNPYSRNSTHEMYFTSRAGGNIIGAVTACTERLLGRMARRDGPVVVPELNLGTGTR”, the “soluble on expression in E. coli” value was “soluble”.
For “MNNHFGKGLMAGLHAPYAYSAHHAVNFCSEYKRGFVLGFTHRMFEKTGDRQLSAWEAGILTRRYGLDKEMVMDFFKENHSGMAVRFFMAGYRLEG”, the “soluble on expression in E. coli” value was “not soluble”.
With “MGSDKIHHHHHHMSESCILFFVKYPEPGKVKTRLGEVVGNDKAAMLYRHFVQDMLQGLARLHADLHICYVPGDADLPEKFKAWLGPQHMFAAQQGLDLGERMKHAMQKAFDDGYDRVVLMGSDIPDYPCELVQKALNDLQHYDAAIGPAFDGGYYLIGFRKDSFCPDVFDGIRWGEADVYQPTVEKMRRARLEVLQLPDWNDVDTVWDLNVLYRTNKNSSFRRSSTYALLRENDALIRQYDIDLPGMAPVEKE” the “soluble on expression in E. coli” value was “not soluble”.
In the case of “SCQSEKHPGPELQAAEKWLYFPQLALWRRLGQLSCMSRPALNLRSWLLTILHYLLPFRVLGPHSQVGWRPLSRVSLYKTVPTRLLSRACGRLNQVELPYWLWRPVYSLYIWTFGVNMTEAAVEDLHHYHNLSEFFWHQPIMARSSPLGR”, the “soluble on expression in E. coli” value was “not soluble”.
In the case of “MSLKPNIQFEITGASRILPASGPITNLEILKNFPRTADKSQGFLEKFAEKIGEEFGFHTRYWCHKPWESLDNSRELSSESLAMQAVDKLITHSMSKDVDAFLLGSTTNKRFTGSQAAAVLGNLKLNAPAYDLKTGCSTSLSTLHFAYALMALGYQKILVCCSETLSKVIDPENEKTWIGLADGAASLLLEKSKEGSFTIEKSFFSTDGQYVNAFTTQGVFPPTHEQIDSVGYHLVGDETLMKELAYSRYMQMLDHLLPTEKEKNEITWVIPHQVNRKLIDQVLHENNLNNKIIIWDADTIGNIGGASVLYTLARAVEEKLFDRSGKILLMSVGGGLSYAGQVLNYQEGHHHHHH”, the “soluble on expression in E. coli” value was “soluble”.
For “MGSDKIHHHHHHMGIDELYKKEFGIVAGVDEAGRGCLAGPVVAAAVVLEKEIEGINDSKQLSPAKRERLLDEIMEKAAVGIGIASPEEIDLYNIFNATKLAMNRALENLSVKPSFVLVDGKGIELSVPGTCLVKGDQKSKLIGAASIVAKVFRDRLMSEFHRMYPQFSFHKHKGYATKEHLNEIRKNGVLPIHRLSFEPVLELLTDDLLREFFEKGLISENRFERILNLLGARKSVVFRKERTNHNLPLF”, the “soluble on expression in E. coli” value was “soluble”.
With “SLAHIVTLNTPLREDWLAQLADVVTNPDELLHLLQIEADENLRAGQDARRLFALRVPRAFIARMEKGNPDDPLLRQVLTSRDEFIVAPGFSTDPLEEQHSVVPGLLHKYQNRALLLVKGGCAVNCRYCFRRHFPYAENQGNKRNWTVALEYIAAHPELDEIIFSGGDPLMAKDHELDWLLTQLEAIKHVKRLRIHSRLPIVIPARITDELVARFDQSRLQILLVNHINHANEVDEAFGLAMKKLRHVGVTLLNQSVLLRGVNDNARTLANLSNALFDAGVMPYYLHVLDKVQGAAHFMVTDDEARQIMRELLTLVSGYMVPRLAREIGGEPSKTPLDLQLRQC” the “soluble on expression in E. coli” value was “not soluble”.
In the case of “MQAKIAASNTGELDALQQLGFSLVEGEVDLALPVNNASDSGAVVAQETDIPALRQLASAAFAQSRFRAPWYAPDASSRFYAQWIENAVRGTFDHQCLILRAASGDIRGYVSLRELNATDARIGLLAGRGAGAELMQTALNWAYARGKTTLRVATQMGNTAALKRYIQSGANVESTAYWLYR”, the “soluble on expression in E. coli” value was “not soluble”.
For “MGFGDLKSPAGLQVLNDYLADKSYIEGYVPSQADVAVFEAVSSPPPADLCHALRWYNHIKSYEKEKASLPGVKKALGKYGPADVEDTTGSGATDSKDDDDIDLFGSDDEEESEEAKRLREERLAQYESKKAKKPALVAKSSILLDVKPWDDETDMAKLEECVRSIQADGLVWGSSKLVPVGYGIKKLQIQCVVEDDKVGTDMLEEQITAFEDYVQSMDVAAFNKI”, the “soluble on expression in E. coli” value was “soluble”.
With “MTVLKLSHWRVLAELADGLPQHVSQLARMADMKPQQLNGFWQQMPAHIRGLLRQHDGYWRLVRPLAVFDAEGLRELGERSGFQTALKHECASSNDEILELARIAPDKAHKTICVTHLQSKGRGRQGRKWSHRLGECLMFSFGWVFDRPQYELGSLSPVAAVACRRALSRLGLDVQIKWPNDLVVGRDKLGGILIETVRTGGKTVAVVGIGINFVLPKEVENAASVQSLFQTASRRGNADAAVLLETLLVELDAVLLQYARDGFAPFVAEYQAANRDHGKAVLLLRDGETVFEGTVKGVDGQGVLHLETAEGKQTVVSGEISLRSDDRPVSVPKRRDSERFLLLDGGNSRLKWAWVENGTFATVGSAPYRDLSPLGAEWAEKADGNVRIVGCAVCGEFKKAQVQEQLARKIEWLPSSAQALGIRNHYRHPEEHGSDRWFNALGSRRFSRNACVVVSCGTAVTVDALTDDGHYLGGTIMPGFHLMKESLAVRTANLNRHAGKRYPFPTTTGNAVASGMMDAVCGSVMMMHGRLKEKTGAGKPVDVIITGGGAAKVAEALPPAFLAENTVRVADNLVIYGLLNMIAAEGREYEHI” the “soluble on expression in E. coli” value was “not soluble”.
For “MGSDKIHHHHHHMATGSNIRTYFQGSWHEGDAPIIRAADHGAWLGSGVFDGARYFDGMAPDLEAHCARVNRSAEALMLTPTVSTQDMVEIVREGLKAYGPDQAVYIRPMYWGIDGDPTAIIPQADSTGFAVCLEEIPMAPATASATLTTTRFRRPVLEDAVVNAKAGCLYPNNARMLREARSKGFTNALVADALGNVAETATANIFMVKDGEVFTPIANGTFLAGITRARHIKNLRADGVPVHETVLSFADFHAADEVFMSGNMSKVTPVTALDDTQYQIGPIARRARALYWDWAKSTA”, the “soluble on expression in E. coli” value was “not soluble”.
With “MLDLQGLEEIANVQMQLENIISKLNIPIIQKGVFDNEGYLKSIMRGMRDYICFKTSKKKYKTIKAQNVIIHPGSLISTDSVKYFVAGEIIETTKMYARSIGVLKKEWIDDIILNEEFKHNDISSKELEHHHHHH” the “soluble on expression in E. coli” value was “not soluble”.
